According to FireProtDB (doi:10.1093/oxfordjournals.jbchem.a002919):

B1: 3-isopropylmalate dehydrogenase, P50455 (parent)
chain: MGFTVALIQGDGIGPEIVSKSKRILAKINELYSLPIEYIEVEAGDRALARYGEALPKDSLKIIDKADIILKGPVGESAADVVVKLRQIYDMYANIRPAKSIPGIDTKYGNVDILIVRENTEDLYKGFEHIVSDGVAVGMKIITRFASERIAKVGLNFALRRRKKVTCVHKANVMRITDGLFAEACRSVLKGKVEYSEMYVDAAAANLVRNPQMFDVIVTENVYGDILSDEASQIAGSLGIAPSANIGDKKALFEPVHGAAFDIAGKNIGNPTAFLLSVSMMYERMYELSNDDRYIKASRALENAIYLVYKERKALTPDVGGNATTDDLINEIYNKLG

Variants of: B1
Settings: Sulfurisphaera tokodaii (strain DSM 16993 / JCM 10545 / NBRC 100140 / 7); pH 7; Thermal; CD; Potassium phosphate 20 mM; structure 1WPW; whole UniProt chain shown

Variant | Tm [°C] | change of melting temperature, mutant - wild type (higher = more stable) [°C]
MGFTVALIQGDGIGPEIVSKSKRILAKINELYSLPIEYIEVEAGDRALARYGEALPKDSLKIIDKADIILKGPVGESAADVVVKLRQIYDMYANIRPAKSIPGIDTKYGNVDILIVRENTEDLYKGFEHIVSDGVAVGMKIITRFASERIARVALNFALRRRKKVTCVHKANVMRITDGLFAEACRSVLKGKVEYSEMYVDAAAANLVRNPQMFDVIVTENVYGDILSDEASQIAGSLGIAPSANIGDKKALFEPVHGAAFDIAGKNIGNPTAFLLSVSMMYERMYELSNDDRYIKASRALENAIYLVYKERKALTPDVGGNATTDDLINEIYNKLG [K152R G154A] | 97.2 | 1.2
MGFTVALIQGDGIGPEIVSKSKRILAKINELYSLPIEYIEVEAGDRALARYGEALPKDSLKIIDKADIILKGPVGESAADVVVKLRQIYDMYANIRPAKSIPGIDTKYGNVDILIVRENTEDLYKGFEHIVSDGVAVGMKIITRFASERIAKVGLNFALRRRKKVTCVHKANVMRITDGLFAEACRSVLKGKVEYSEMYVDAAAANLVRNPQMFDVIVTENVYGDILSDEASQIAGSLGIAPSANIGDKKALFEPVHGSAPDIAGKNIGNPTAFLLSVSMMYERMYELSNDDRYIKASRALENAIYLVYKERKALTPDVGGNATTDDLINEIYNKLG [A259S F261P] | 97.1 | 1.1
MGFTVALIQGDGIGPEIVSKSKRILAKINELYSLPIEYIEVEAGDRALARYGEALPKDSLKIIDKADIILKGPVGESAADVVVKLRQIYDMYANIRPAKSIPGIDTKYGNVDILIVRENTEDLYKGFEHIVSDGVAVGMKIITRFASERIAKVALNFALRRRKKVTCVHKANVMRITDGLFAEACRSVLKGKVEYSEMYVDAAAANLVRNPQMFDVIVTENVYGDILSDEASQIAGSLGIAPSANIGDKKALFEPVHGAAFDIAGKNIGNPTAFLLSVSMMYERMYELSNDDRYIKASRALENAIYLVYKERKALTPDVGGNATTDDLINEIYNKLG [G154A] | 97.9 | 1.9
MGFTVALIQGDGIGPEIVSKSKRILAKINELYSLPIEYIEVEAGDRALARYGEALPKDSLKIIDKADIILKGPVGESAADVVVKLRQIYDMYANIRPAKSIPGIDTKYGNVDILIVRENTEDLYKGFEHIVSDGVAVGMKIITRFASERIARVGLNFALRRRKKVTCVHKANVMRITDGLFAEACRSVLKGKVEYSEMYVDAAAANLVRNPQMFDVIVTENVYGDILSDEASQIAGSLGIAPSANIGDKKALFEPVHGAAFDIAGKNIGNPTAFLLSVSMMYERMYELSNDDRYIKASRALENAIYLVYKERKALTPDVGGNATTDDLINEIYNKLG [K152R] | 95.6 | -0.4
MGFTVALIQGDGIGPEIVSKSKRILAKINELYSLPIEYIEVEAGDRALARYGEALPKDSLKIIDKADIILKGPVGESAADVVVKLRQIYDLYANLRPAKSIPGIDTKYGNVDILIVRENTEDLYKGFEHIVSDGVAVGMKIITRFASERIARVALNFALRRRKKVTCVHKANVMRITDGLFAEACRSVLKGKVEYSEMYVDAAAANLVRNPQMFDVIVTENVYGDILSDEASQIAGSLGIAPSANIGDKKALFEPVHGSAPDIAGKNIGNPTAFLLSVSMMLERMYELSNDDRYIKASRALENAIYLVYKERKALTPDVGGNATTDDLINEIYNKLG [M91L I95L K152R G154A A259S F261P Y282L] | 96.4 | 0.4
MGFTVALIQGDGIGPEIVSKSKRILAKINELYSLPIEYIEVEAGDRALARYGEALPKDSLKIIDKADIILKGPVGESAADVVVKLRQIYDMYANIRPAKSIPGIDTKYGNVDILIVRENTEDLYKGFEHIVSDGVAVGMKIITRFASERIAKVGLNFALRRRKKVTCVHKANVMRITDGLFAEACRSVLKGKVEYSEMYVDAAAANLVRNPQMFDVIVTENVYGDILSDEASQIAGSLGIAPSANIGDKKALFEPVHGAAFDIAGKNIGNPTAFLLSVSMMLERMYELSNDDRYIKASRALENAIYLVYKERKALTPDVGGNATTDDLINEIYNKLG [Y282L] | 94.7 | -1.3
MGFTVALIQGDGIGPEIVSKSKRILAKINELYSLPIEYIEVEAGDRALARYGEALPKDSLKIIDKADIILKGPVGESAADVVVKLRQIYDLYANLRPAKSIPGIDTKYGNVDILIVRENTEDLYKGFEHIVSDGVAVGMKIITRFASERIAKVGLNFALRRRKKVTCVHKANVMRITDGLFAEACRSVLKGKVEYSEMYVDAAAANLVRNPQMFDVIVTENVYGDILSDEASQIAGSLGIAPSANIGDKKALFEPVHGAAFDIAGKNIGNPTAFLLSVSMMYERMYELSNDDRYIKASRALENAIYLVYKERKALTPDVGGNATTDDLINEIYNKLG [M91L I95L] | 99.2 | 3.2
